Test results from article PMC5490261, “The structural and functional characterization of human RecQ4 reveals insights into its helicase mechanism”.
Where a chain is given by its changes, count along the chain named.

Experiments:
Conditions in all cases: protein: recombinant; tags: Trx-His6 removed by 3C protease; label: 5' Cy3
[1] = target: T1, RecQ4 427-1208 del944-1032 (Homo sapiens, UniProt O94761 427-943+=GG+1032-1208, internal_change); assay: fluorescence polarization; WT-like, low nM apparent Kd; 20 mM HEPES pH 8.0, 10 mM NaCl, 5% glycerol, 1 mM MgCl2, 0.5 mM TCEP, 0.5 nM Cy3-ssDNA; temperature not stated
T1 sequence: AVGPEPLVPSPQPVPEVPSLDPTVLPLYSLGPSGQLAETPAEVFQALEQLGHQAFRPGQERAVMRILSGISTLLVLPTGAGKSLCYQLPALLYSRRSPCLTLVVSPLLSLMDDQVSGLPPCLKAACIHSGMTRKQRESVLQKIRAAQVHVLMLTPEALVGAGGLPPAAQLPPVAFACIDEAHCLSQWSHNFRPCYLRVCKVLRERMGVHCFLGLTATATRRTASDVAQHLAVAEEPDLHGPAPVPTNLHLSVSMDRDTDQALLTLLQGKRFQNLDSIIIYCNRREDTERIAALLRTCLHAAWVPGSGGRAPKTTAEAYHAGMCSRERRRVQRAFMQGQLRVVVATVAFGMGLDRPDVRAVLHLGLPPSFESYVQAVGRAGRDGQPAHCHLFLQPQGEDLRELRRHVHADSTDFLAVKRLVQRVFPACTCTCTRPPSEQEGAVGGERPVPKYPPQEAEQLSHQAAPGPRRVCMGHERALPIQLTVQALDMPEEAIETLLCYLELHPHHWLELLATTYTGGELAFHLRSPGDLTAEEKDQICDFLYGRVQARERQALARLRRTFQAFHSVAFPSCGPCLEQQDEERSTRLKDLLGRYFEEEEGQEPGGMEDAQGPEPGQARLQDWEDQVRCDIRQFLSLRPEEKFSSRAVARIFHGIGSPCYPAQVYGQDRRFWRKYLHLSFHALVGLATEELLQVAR

RecQ4 427-1208 K1048A = target: T2, RecQ4 427-1208 K1048A (Homo sapiens, UniProt O94761 427-1208, K1048A); assay: as above
T2 sequence: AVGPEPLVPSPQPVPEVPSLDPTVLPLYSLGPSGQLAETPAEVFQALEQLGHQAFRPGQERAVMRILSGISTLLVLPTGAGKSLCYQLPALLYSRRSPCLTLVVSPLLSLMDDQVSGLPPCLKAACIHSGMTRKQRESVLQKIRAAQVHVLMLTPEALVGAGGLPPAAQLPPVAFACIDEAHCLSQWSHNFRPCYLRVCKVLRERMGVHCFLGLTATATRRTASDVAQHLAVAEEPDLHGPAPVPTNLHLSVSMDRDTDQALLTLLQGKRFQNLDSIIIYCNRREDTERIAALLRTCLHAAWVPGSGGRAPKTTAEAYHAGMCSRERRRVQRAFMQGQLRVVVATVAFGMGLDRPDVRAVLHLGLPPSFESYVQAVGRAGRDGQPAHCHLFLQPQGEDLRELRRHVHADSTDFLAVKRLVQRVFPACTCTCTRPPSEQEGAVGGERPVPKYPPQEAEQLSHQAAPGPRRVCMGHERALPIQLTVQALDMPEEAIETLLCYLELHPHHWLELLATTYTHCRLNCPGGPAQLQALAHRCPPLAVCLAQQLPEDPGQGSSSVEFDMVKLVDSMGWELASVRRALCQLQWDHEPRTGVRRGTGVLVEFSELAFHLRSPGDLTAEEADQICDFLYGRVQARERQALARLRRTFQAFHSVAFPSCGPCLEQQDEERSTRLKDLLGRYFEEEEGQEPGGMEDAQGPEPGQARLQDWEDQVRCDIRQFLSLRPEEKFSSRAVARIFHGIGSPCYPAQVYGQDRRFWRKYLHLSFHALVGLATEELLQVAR

RecQ4 427-1208 H615L = target: T3, RecQ4 427-1208 H615L (Homo sapiens, UniProt O94761 427-1208, H615L); assay: fluorescence polarization; WT-like affinity; figure values not assignable from text layer; 20 mM HEPES pH 8.0, 10 mM NaCl, 5% glycerol, 1 mM MgCl2, 0.5 mM TCEP, 0.5 nM Cy3-ssDNA; temperature not stated
T3 sequence: T2 sequence with H189L, A622K

Measured: binding result

CCATTCCACCCTCTATTTTTTTTTTTTTTT (ssDNA) [T3-Cy3]
binds: all assays above
